B1: library; numbered along this chain (parent)
chain: MRKPRAAVGSGHRKQAASQEGRQKHAKNNSQAKPSACDGLARQPEEVVLQASVSSYHLFRDVAEVTAFRGSLLSWYDQEKRDLPWRRRAEDEMDLDRRAYAVWVSEVMLQQTQVATVINYYTGWMQKWPTLQDLASASLEEVNQLWAGLGYYSRGRRLQEGARKVVEELGGHMPRTAETLQQLLPGVGRYTAGAIASIAFGQATGVVDGNVARVLCRVRAIGADPSSTLVSQQLWGLAQQLVDPARPGDFNQAAMELGATVCTPQRPLCSQCPVESLCRARQRVEQEQLLASGSLSGSPDVEECAPNTGQCHLCLPPSEPWDQTLGVVNFPRKASRKPPREESSATCVLEQPGALGAQILLVQRPNSGLLAGLWEFPSVTWEPSEQLQRKALLQELQRWAGPLPATHLRHLGEVVHTFSHIKLTYQVYGLALEGQTPVTTVPPGARWLTQEEFHTAAVSTAMKKVFRVYQGQQPGTCMGSKRSQVSSPCSRKKPRMGQQVLDNFFRSHISTDAHSLNSAAQ

Variants of: B1
Assay: 8OG:A repair function score (normalized; synonymous = 0, nonsense = -1) (normalized log-likelihood score); higher = more repair activity (WT-like)
Settings: with 8OG:A DNA repair reporter (GFP) in HEK-293 MUTYH KO cells
Procedure: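 Saturation mutagenesis (NNN codon scan) of the MUTYH cDNA (521-aa nuclear isoform NM_001048174.1 / NP_001041639), stably expressed under doxycycline induction in HEK-293 MUTYH knockout cells. Cells were co-transfected with an 8OG:A-bearing GFP repair reporter plus mCherry and sorted 72 h later into GFP+ and GFP− bins, three replicates per tile. The Rosace log2 enrichment (GFP+ vs GFP−) was converted per tile to a normalized function score with synonymous variants centered at 0 and nonsense variants (codons 1-471) at -1; low-abundance variants were removed.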
For V328K, the “8OG:A repair function score” value was 0.0221. T179E was tested, and the “8OG:A repair function score” value was -0.0168. N517P was tested, and the “8OG:A repair function score” value was 0.0174. With W374Y the “8OG:A repair function score” value was -0.274. With L73Y the “8OG:A repair function score” value was -2.08. For S231A, the “8OG:A repair function score” value was -0.0555. In the case of I421T, the “8OG:A repair function score” value is reported as -0.299. With G170T the “8OG:A repair function score” value was -0.248. In the case of H514K, the “8OG:A repair function score” value is reported as 0.0132. In the case of K333N, the “8OG:A repair function score” value is reported as -0.205. With K422F the “8OG:A repair function score” value was -0.584. In the case of Q144L, the “8OG:A repair function score” value is reported as -0.000148. A431E was tested, and the “8OG:A repair function score” value was 0.346. With T263Q the “8OG:A repair function score” value was -0.129. A445H was tested, and the “8OG:A repair function score” value was -0.71. T476N was tested, and the “8OG:A repair function score” value was -0.0111. With D61Y the “8OG:A repair function score” value was -0.0853. L268G was tested, and the “8OG:A repair function score” value was -0.0658. R491T was tested, and the “8OG:A repair function score” value was 0.0121. In the case of A41M, the “8OG:A repair function score” value is reported as -0.0227. In the case of G412K, the “8OG:A repair function score” value is reported as -0.396. In the case of L73E, the “8OG:A repair function score” value is reported as -0.46. With K464H the “8OG:A repair function score” value was -0.313. With E79D the “8OG:A repair function score” value was -0.145. In the case of S294E, the “8OG:A repair function score” value is reported as 0.00208. L58Q was tested, and the “8OG:A repair function score” value was -0.00261. With V102C the “8OG:A repair function score” value was -0.092. In the case of S105V, the “8OG:A repair function score” value is reported as -0.566. W321L was tested, and the “8OG:A repair function score” value was -0.0977. With S276K the “8OG:A repair function score” value was 0.0174. For T455R, the “8OG:A repair function score” value was -0.0505. With L277N the “8OG:A repair function score” value was -0.0739. With I195Y the “8OG:A repair function score” value was -0.741. In the case of P443H, the “8OG:A repair function score” value is reported as 0.055. With L268P the “8OG:A repair function score” value was -0.285. P331T was tested, and the “8OG:A repair function score” value was -0.351. With Q240I the “8OG:A repair function score” value was -0.959. For K422T, the “8OG:A repair function score” value was -0.156. With L393Y the “8OG:A repair function score” value was -0.503. For V211G, the “8OG:A repair function score” value was -0.791. T406R was tested, and the “8OG:A repair function score” value was 0.0241. With Q113C the “8OG:A repair function score” value was -0.133. P317H was tested, and the “8OG:A repair function score” value was -0.0747. N366C was tested, and the “8OG:A repair function score” value was -0.137. With R98Y the “8OG:A repair function score” value was -0.0815. For L229P, the “8OG:A repair function score” value was -0.112. In the case of W128F, the “8OG:A repair function score” value is reported as -0.156. With A41I the “8OG:A repair function score” value was 0.0909. For R279Q, the “8OG:A repair function score” value was -0.155. With P317A the “8OG:A repair function score” value was -0.0112. With E167N the “8OG:A repair function score” value was 0.0307. In the case of Q521G, the “8OG:A repair function score” value is reported as -0.018. In the case of Q132R, the “8OG:A repair function score” value is reported as 0.00437. In the case of K390T, the “8OG:A repair function score” value is reported as -0.141. In the case of S518D, the “8OG:A repair function score” value is reported as -0.00955. With Y76S the “8OG:A repair function score” value was -1.16. G161R was tested, and the “8OG:A repair function score” value was -1.15. In the case of T406G, the “8OG:A repair function score” value is reported as -0.00238. L392W was tested, and the “8OG:A repair function score” value was -1.27. With T204K the “8OG:A repair function score” value was 0.0186. K422E was tested, and the “8OG:A repair function score” value was -0.492. R283C was tested, and the “8OG:A repair function score” value was -0.167. With Q252M the “8OG:A repair function score” value was -0.854. For A456C, the “8OG:A repair function score” value was -0.168. In the case of A192D, the “8OG:A repair function score” value is reported as -0.927. T66L was tested, and the “8OG:A repair function score” value was -0.00253. E385F was tested, and the “8OG:A repair function score” value was -0.34. In the case of Q484F, the “8OG:A repair function score” value is reported as -0.005. With L448K the “8OG:A repair function score” value was -0.743. With W399I the “8OG:A repair function score” value was -0.15. With G297L the “8OG:A repair function score” value was -0.000773. C477L was tested, and the “8OG:A repair function score” value was 0.0205. With A89D the “8OG:A repair function score” value was -0.0385. With T511L the “8OG:A repair function score” value was -0.0126. E350N was tested, and the “8OG:A repair function score” value was -0.112. With E285K the “8OG:A repair function score” value was -0.0741. In the case of R491V, the “8OG:A repair function score” value is reported as 0.0088. With V284T the “8OG:A repair function score” value was 0.0102. With T228R the “8OG:A repair function score” value was 0.329. With P34G the “8OG:A repair function score” value was -0.0669. In the case of H312Q, the “8OG:A repair function score” value is reported as -0.0663. With R482E the “8OG:A repair function score” value was 0.00949. In the case of G161A, the “8OG:A repair function score” value is reported as -0.00122. H454D was tested, and the “8OG:A repair function score” value was -0.376. In the case of G155F, the “8OG:A repair function score” value is reported as -0.526. For P317I, the “8OG:A repair function score” value was -0.0482. With Y120N the “8OG:A repair function score” value was -0.333. For N366L, the “8OG:A repair function score” value was -0.0714. In the case of T324Q, the “8OG:A repair function score” value is reported as -0.0692. In the case of Q363M, the “8OG:A repair function score” value is reported as -0.284. P383Y was tested, and the “8OG:A repair function score” value was -0.0911. In the case of L149M, the “8OG:A repair function score” value is reported as -0.664. S518W was tested, and the “8OG:A repair function score” value was -0.0247. For A6I, the “8OG:A repair function score” value was -0.177. With A101T the “8OG:A repair function score” value was -0.047. W399A was tested, and the “8OG:A repair function score” value was -0.229. For Q310R, the “8OG:A repair function score” value was -0.0435. In the case of C269Q, the “8OG:A repair function score” value is reported as -1.19. In the case of R189V, the “8OG:A repair function score” value is reported as -0.148. In the case of P129C, the “8OG:A repair function score” value is reported as -0.403. With C304D the “8OG:A repair function score” value was -0.518. In the case of H57A, the “8OG:A repair function score” value is reported as -0.797. For W381H, the “8OG:A repair function score” value was 0.26. S335W was tested, and the “8OG:A repair function score” value was -0.0943. For V165K, the “8OG:A repair function score” value was -1.13. In the case of A357D, the “8OG:A repair function score” value is reported as -0.193. For L40R, the “8OG:A repair function score” value was 0.0698. For R87S, the “8OG:A repair function score” value was 0.00689. With E303T the “8OG:A repair function score” value was -0.0474. With H172S the “8OG:A repair function score” value was 0.0204. R389A was tested, and the “8OG:A repair function score” value was -0.241. With I359W the “8OG:A repair function score” value was 0.0132. With A280Y the “8OG:A repair function score” value was -0.51. With R332D the “8OG:A repair function score” value was -0.574. L277H was tested, and the “8OG:A repair function score” value was -0.0518. For N210Y, the “8OG:A repair function score” value was -1. With A135G the “8OG:A repair function score” value was -0.074. With V485H the “8OG:A repair function score” value was 0.0165. In the case of P494M, the “8OG:A repair function score” value is reported as -0.0511. In the case of R446C, the “8OG:A repair function score” value is reported as -0.342. T511I was tested, and the “8OG:A repair function score” value was -0.0251. With A291W the “8OG:A repair function score” value was -0.0221. For T455N, the “8OG:A repair function score” value was 0.0652. V142N was tested, and the “8OG:A repair function score” value was -1.86. For W447M, the “8OG:A repair function score” value was -0.801. E385T was tested, and the “8OG:A repair function score” value was -0.24. S71R was tested, and the “8OG:A repair function score” value was -0.0148. With L315I the “8OG:A repair function score” value was -0.0865. G309K was tested, and the “8OG:A repair function score” value was -0.0254. In the case of L501E, the “8OG:A repair function score” value is reported as 0.0149. F453V was tested, and the “8OG:A repair function score” value was -0.184. With Y100M the “8OG:A repair function score” value was -1.24. For A253L, the “8OG:A repair function score” value was -1.02. With S226K the “8OG:A repair function score” value was 0.026. With A520I the “8OG:A repair function score” value was -0.0239. In the case of P474R, the “8OG:A repair function score” value is reported as 0.00458. In the case of K127S, the “8OG:A repair function score” value is reported as -0.0418. L501F was tested, and the “8OG:A repair function score” value was 0.0198. In the case of S226P, the “8OG:A repair function score” value is reported as -0.642. In the case of Q288I, the “8OG:A repair function score” value is reported as -0.0801. With V284L the “8OG:A repair function score” value was -0.0493. In the case of L313V, the “8OG:A repair function score” value is reported as -0.213. With W103E the “8OG:A repair function score” value was -1.13. With D77W the “8OG:A repair function score” value was -0.0696. For L215A, the “8OG:A repair function score” value was -0.788. For T460S, the “8OG:A repair function score” value was -0.019. For N143R, the “8OG:A repair function score” value was -0.181. L516S was tested, and the “8OG:A repair function score” value was 0.0241. P402F was tested, and the “8OG:A repair function score” value was -0.215. With P84T the “8OG:A repair function score” value was -0.154. For G188A, the “8OG:A repair function score” value was -0.365. P317S was tested, and the “8OG:A repair function score” value was 0.0611. In the case of S226R, the “8OG:A repair function score” value is reported as 0.00193. With T66E the “8OG:A repair function score” value was 0.00467. With S197L the “8OG:A repair function score” value was -1.13. A101G was tested, and the “8OG:A repair function score” value was -0.024. For R398A, the “8OG:A repair function score” value was 0.0255. L396V was tested, and the “8OG:A repair function score” value was -0.026. With L387W the “8OG:A repair function score” value was -0.0182. G497A was tested, and the “8OG:A repair function score” value was -0.0723. In the case of L95Y, the “8OG:A repair function score” value is reported as -0.0972. With R495G the “8OG:A repair function score” value was -0.0152. With P402W the “8OG:A repair function score” value was -0.534. Q271W was tested, and the “8OG:A repair function score” value was -0.0164. In the case of T130N, the “8OG:A repair function score” value is reported as -0.00511. For V166I, the “8OG:A repair function score” value was 0.0212. With P339S the “8OG:A repair function score” value was -0.0594.
